The assay deals with SBW25 RimK (P. fluorescens SBW25) (UniProt C3KE61).
UniProt C3KE61, sequence (C3KE61 whole entry): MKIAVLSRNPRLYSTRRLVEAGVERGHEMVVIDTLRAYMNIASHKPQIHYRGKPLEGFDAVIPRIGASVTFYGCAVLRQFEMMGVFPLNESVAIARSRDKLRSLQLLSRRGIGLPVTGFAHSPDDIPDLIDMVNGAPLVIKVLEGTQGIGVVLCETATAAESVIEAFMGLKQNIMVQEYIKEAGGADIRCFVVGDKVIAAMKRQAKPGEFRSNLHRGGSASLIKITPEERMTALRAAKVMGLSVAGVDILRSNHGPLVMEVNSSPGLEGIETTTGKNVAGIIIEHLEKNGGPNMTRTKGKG

Take SBW25 RimB (enzyme): the ATPase specific activity of SBW25 RimK (3.8 μM) with RimB (6.0 μM), linked PK/LDH assay; RimK only 47 nmol/min/mg RimK amounted to 196 nmol/min/mg.

The record behind these values is publication PMC11957791.
